Data taken from article PMC7494997.

Tests used:
hVSIG3-Fc (human) = hVSIG3-Fc (human) (UniProt Q5DX21); assay: ELISA; binding curves of the VISTA-Fc mutants E125A and F62A (Supplementary Fig. S6D, S6E); conditions not given
Human PSGL-1-Fc (human) = Human PSGL-1-Fc (human) (UniProt Q14242); assay: as above
Human PSGL-1-Fc (human), sequence (Q14242 42-320): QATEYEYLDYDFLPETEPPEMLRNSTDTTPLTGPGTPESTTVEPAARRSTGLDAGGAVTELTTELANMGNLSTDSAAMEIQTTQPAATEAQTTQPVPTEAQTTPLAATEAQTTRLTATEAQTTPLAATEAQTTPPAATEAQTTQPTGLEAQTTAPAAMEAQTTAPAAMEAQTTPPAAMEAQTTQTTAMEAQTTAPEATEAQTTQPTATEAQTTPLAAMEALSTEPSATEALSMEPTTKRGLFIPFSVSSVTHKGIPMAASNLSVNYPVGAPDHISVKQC

hVSIG3-Fc (human), sequence (Q5DX21 23-241): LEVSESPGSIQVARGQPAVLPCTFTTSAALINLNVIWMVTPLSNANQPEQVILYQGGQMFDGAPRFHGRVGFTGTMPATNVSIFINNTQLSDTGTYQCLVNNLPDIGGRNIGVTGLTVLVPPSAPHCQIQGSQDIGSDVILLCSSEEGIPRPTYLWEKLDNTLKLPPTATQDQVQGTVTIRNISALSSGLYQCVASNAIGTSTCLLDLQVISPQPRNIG

| Substance | fold affinity over the WT VISTA interaction (hVSIG3-Fc (human)) | fold affinity over the WT VISTA interaction (Human PSGL-1-Fc (human)) |
| --- | --- | --- |
| soluble hVISTA-Fc F62A (Fc fusion) | > 2 fold | – |
| soluble hVISTA-Fc E125A (Fc fusion) | – | > 2 fold |
